Reference: publication PMC10366140

Tested on: apRAD51C-CTD-1 WT (Alvinella pompejana)
Experiment: fluorescence polarization
Details: FP: 20 mM HEPES pH 8, 80 mM NaCl, 2.5 mM ATP, 2.5 mM MgCl2, 1 mM DTT, 0.1 mg/mL BSA, 10 nM DNA, 37 C 20 min, EMSA: 20 mM Tris pH 8.0, 150 mM KCl, 4 C 15 min

TTTTTTTTTTTTTTTTTTTT [poly-20dT] showed a Kd of 1250 nM.
